One assay concerns the target T1, mouse LAG-3 (mouse, UniProt Q61790 24-442).
T1 construct: The construct is not described; also called mouse LAG-3 (Sino Biological cat no 53069-M02H); Mouse LAG3 (R&D Biotechne cat 3328-L3)
T1 sequence (looked up): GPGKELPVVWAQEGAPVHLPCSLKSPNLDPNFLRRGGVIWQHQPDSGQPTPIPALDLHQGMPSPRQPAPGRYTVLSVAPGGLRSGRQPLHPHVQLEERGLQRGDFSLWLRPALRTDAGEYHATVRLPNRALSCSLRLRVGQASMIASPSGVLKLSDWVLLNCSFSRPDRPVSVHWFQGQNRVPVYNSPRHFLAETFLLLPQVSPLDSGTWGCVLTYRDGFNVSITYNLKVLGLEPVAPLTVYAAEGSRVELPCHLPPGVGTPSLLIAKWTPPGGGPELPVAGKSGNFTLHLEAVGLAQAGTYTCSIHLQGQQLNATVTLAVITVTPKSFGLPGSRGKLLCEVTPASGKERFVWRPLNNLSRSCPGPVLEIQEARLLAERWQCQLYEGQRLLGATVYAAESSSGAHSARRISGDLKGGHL
Description: ELISA, coated antigen, anti-HIS HRP detection. As to the method:
(§1) To screen specificity by ELISA, antigens were coated at 1-5 ug/ml and blocked with Marvel milk powder. VH were added at 10 μg/ml and incubated for 1 hour. After washing, HRP-conjugated anti-HIS antibody (Miltenyi cat no. 130-092-785) was added. TMB substrate and acidic solution were used to develop colorimetric signal.
Background: In an ELISA, binding on a coated surface is turned into a signal by an enzyme label.

The next assay deals with T2, CD4 (UniProt P01730 26-390).
T2 construct: also called CD4 (R&D Biotechne 514-CD)
Nature of the assay: ELISA, coated antigen, anti-HIS HRP detection. The procedure:
as §1

The target in assay [1] is T3, recombinant human LAG-3-Fc (human, UniProt P18627 23-450).
T3 construct: also called human LAG-3 (R&D Systems cat no. 2319-L3); LAG3 antigen
T3 sequence: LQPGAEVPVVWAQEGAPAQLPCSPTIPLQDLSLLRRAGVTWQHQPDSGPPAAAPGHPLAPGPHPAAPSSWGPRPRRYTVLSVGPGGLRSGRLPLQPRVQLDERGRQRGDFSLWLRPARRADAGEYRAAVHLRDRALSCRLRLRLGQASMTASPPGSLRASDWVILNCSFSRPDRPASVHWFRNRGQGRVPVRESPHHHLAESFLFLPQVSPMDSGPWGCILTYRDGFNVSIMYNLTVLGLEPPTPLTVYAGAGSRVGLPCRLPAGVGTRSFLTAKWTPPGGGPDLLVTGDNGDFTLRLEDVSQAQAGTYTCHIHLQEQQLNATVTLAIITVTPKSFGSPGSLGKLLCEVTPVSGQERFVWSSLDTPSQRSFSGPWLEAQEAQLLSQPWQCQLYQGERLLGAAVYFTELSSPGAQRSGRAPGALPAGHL
Description: competition ELISA; LAG-3-Fc pre-incubated with VH, binding to coated Galectin-3. The source says:
The plate was blocked with 3% Marvel skimmed milk powder in PBS. […] Wash steps were done 3 times with PBS 0.05% Tween. Colour was developed using TMB and 0.5M sulphuric acid solution.

Assay [2] has as its target T4, human LAG-3 domains 1-2-Fc (human, UniProt P18627 23-261, limits assumed).
T4 construct: Domains were identified as per Huard et al 1997 PNAS 94:5744-9; also called truncated LAG-3
T4 sequence: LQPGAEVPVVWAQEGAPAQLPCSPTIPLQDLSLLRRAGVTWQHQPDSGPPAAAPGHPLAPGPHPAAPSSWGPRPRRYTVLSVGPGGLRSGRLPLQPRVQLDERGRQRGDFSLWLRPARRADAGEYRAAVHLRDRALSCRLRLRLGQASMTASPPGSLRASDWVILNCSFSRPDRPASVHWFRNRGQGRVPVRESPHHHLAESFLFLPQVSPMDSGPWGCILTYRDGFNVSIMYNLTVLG
Description: BLI (Octet); human LAG-3 domains 1-2-Fc captured on protein G biosensors, 1:1 fit. The procedure:
Binding kinetics for multi-valent and bispecific VH were also measured in real-time bio-layer interferometer based biosensor Octet (ForteBio). […] All the binding studies were performed in HBS-ET Octet kinetics buffer. Biosensors were washed in Octet kinetics buffer in between different steps. […] The contact time for each of the association steps was 150 seconds and the dissociation step was 400 seconds. […] To compare the constructs, kinetic association (kₐ) and dissociation (kd) rate constants were determined by processing and fitting the data to a 1:1 binding model using ForteBio Analysis software.
In general terms: BLI is a label-free optical method that tracks binding on a fibre tip over time.

B1: VH1.1-6GS-VH1.1-His6 (VHH)
chain: EVQLVESGGGVVRPGGSLRLSCSASGFTFDDYGMSWVRQAPGKGLEWVSGIHWNGGNSGYADSVKGRFTISRDNAKNSLYLQMNSLRAEDTALYYCARIPREDCSSASCYTDAIDFWGPGTMVTVSSGGGGSGGGGSGGGGSGGGGSGGGGSGGGGSEVQLVESGGGVVRPGGSLRLSCSASGFTFDDYGMSWVRQAPGKGLEWVSGIHWNGGNSGYADSVKGRFTISRDNAKNSLYLQMNSLRAEDTALYYCARIPREDCSSASCYTDAIDFWGPGTMVTVSSAAAHHHHHH
notes: Tandem fusion of two VH 1.1, bivalent for LAG-3; The entry includes the C-terminal AAA-His6; also called 1.1-6GS-1.1; bivalent 1.1-6GS-1.1
Consider B1, for which, in the assay with mouse LAG-3, the binding result was “no binding (tested: 10 µg/ml VH)”. The binding result with CD4 was “no binding (tested: 10 µg/ml VH)”. In assay [1], the IC50 (as a rule, the concentration that gives 50% inhibition) was 34 nM. In assay [2], the Kd (as a rule, a measure of binding affinity in units of concentration) worked out at 0.811 nM; the koff – broadly, a measure of how fast the partners let go of each other – was 0.000522 s⁻¹; the kon (usually the second-order rate constant of association) was determined as 644000 M⁻¹ s⁻¹.

The values are drawn from patent publication US20210015937A1 (CRESCENDO BIOLOGICS, published 2021).
